Data as given in patent US20150018278.

Experiments:
[1] = system: chicken transcription factor E2F4
[2] = system: negative dominant form of chicken E2F4 (Thr261Ala/Thr263Ala)
[3] = system: constitutively active form of chicken E2F4 (Thr261Glu/Thr263Glu)
constitutively active form of chicken E2F4 (Thr261Glu/Thr263Glu), sequence (chain, as listed by the source T261E T263E): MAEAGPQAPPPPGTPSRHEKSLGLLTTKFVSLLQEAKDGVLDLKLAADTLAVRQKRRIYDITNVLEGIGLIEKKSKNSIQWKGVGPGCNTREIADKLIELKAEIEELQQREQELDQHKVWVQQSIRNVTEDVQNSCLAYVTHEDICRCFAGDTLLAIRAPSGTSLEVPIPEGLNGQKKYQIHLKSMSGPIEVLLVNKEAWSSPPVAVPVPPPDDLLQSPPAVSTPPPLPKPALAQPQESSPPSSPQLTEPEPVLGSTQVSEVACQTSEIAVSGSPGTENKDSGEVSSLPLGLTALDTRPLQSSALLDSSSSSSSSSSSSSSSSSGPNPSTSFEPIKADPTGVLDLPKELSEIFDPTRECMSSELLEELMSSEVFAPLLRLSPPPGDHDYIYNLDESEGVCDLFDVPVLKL

chicken transcription factor E2F4, sequence (chain, as listed by the source): as the sequence (chain, as listed by the source T261E T263E) above, with E249T, E251T counted along it
negative dominant form of chicken E2F4 (Thr261Ala/Thr263Ala), sequence (chain, as listed by the source T261A T263A): as the sequence (chain, as listed by the source T261E T263E) above, with E249A, E251A counted along it

p38^MAPK
phosphorylation on threonine residues of E2F4 (Western blot with anti-phosphoThr antibodies in extracts immunoprecipitated with anti-E2F4 antibodies) [1]: The presence of NGF can be seen to involve an increase in phosphorylation on threonine residues, while the presence of p38^MAPK inhibitor inhibits such phosphorylation.
incorporation of BrdU [2]: The expression of the negative dominant form of E2F4 (E2F4-ND) prevents the effect of 100 ng/ml NGF on the incorporation of BrdU in retinal neurogenic cultures.
incorporation of BrdU [3]: The incorporation of BrdU increases significantly in cells transfected with the constitutively active form of E2F4 (E2F4-CA), an effect that can be observed even in the presence of selective p38^MAPK inhibitor SB203580 (used at 5 µM)
